B1: Mothers against decapentaplegic homolog 4 (Homo sapiens), Q13485 (parent)
chain: MDNMSITNTPTSNDACLSIVHSLMCHRQGGESETFAKRAIESLVKKLKEKKDELDSLITAITTNGAHPSKCVTIQRTLDGRLQVAGRKGFPHVIYARLWRWPDLHKNELKHVKYCQYAFDLKCDSVCVNPYHYERVVSPGIDLSGLTLQSNAPSSMMVKDEYVHDFEGQPSLSTEGHSIQTIQHPPSNRASTETYSTPALLAPSESNATSTANFPNIPVASTSQPASILGGSHSEGLLQIASGPQPGQQQNGFTGQPATYHHNSTTTWTGSRTAPYTPNLPHHQNGHLQHHPPMPPHPGHYWPVHNELAFQPPISNHPAPEYWCSIAYFEMDVQVGETFKVPSSCPIVTVDGYVDPSGGDRFCLGQLSNVHRTEAIERARLHIGKGVQLECKGEGDVWVRCLSDHAVFVQSYYLDREAGRAPGDAVHKIYPSAYIKVFDLRQCHRQMQQQAATAQAAAAAQAAAVAGNIPGPGSVGGIAPAISLSAAAGIGVDDLRRLCILRMSFVKGWGPDYPRQSIKETPCWIEIHLHRALQLLDEVLHTMPIADPQPLD
partner: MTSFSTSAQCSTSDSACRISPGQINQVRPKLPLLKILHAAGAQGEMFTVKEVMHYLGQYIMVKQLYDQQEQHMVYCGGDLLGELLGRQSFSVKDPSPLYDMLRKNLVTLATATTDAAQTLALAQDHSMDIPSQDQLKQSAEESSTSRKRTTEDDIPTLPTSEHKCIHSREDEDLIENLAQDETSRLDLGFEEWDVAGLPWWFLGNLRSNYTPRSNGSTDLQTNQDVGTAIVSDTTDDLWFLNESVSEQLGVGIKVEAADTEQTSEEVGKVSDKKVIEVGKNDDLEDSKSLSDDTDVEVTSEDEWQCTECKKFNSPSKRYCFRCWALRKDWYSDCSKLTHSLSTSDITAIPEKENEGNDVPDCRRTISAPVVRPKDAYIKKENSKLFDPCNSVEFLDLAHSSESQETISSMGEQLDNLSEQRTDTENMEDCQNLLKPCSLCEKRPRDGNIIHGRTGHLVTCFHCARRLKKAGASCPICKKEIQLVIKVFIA
B2: Mothers against decapentaplegic homolog 4 (Homo sapiens), Q13485 (parent)
chain: B1 chain
partner: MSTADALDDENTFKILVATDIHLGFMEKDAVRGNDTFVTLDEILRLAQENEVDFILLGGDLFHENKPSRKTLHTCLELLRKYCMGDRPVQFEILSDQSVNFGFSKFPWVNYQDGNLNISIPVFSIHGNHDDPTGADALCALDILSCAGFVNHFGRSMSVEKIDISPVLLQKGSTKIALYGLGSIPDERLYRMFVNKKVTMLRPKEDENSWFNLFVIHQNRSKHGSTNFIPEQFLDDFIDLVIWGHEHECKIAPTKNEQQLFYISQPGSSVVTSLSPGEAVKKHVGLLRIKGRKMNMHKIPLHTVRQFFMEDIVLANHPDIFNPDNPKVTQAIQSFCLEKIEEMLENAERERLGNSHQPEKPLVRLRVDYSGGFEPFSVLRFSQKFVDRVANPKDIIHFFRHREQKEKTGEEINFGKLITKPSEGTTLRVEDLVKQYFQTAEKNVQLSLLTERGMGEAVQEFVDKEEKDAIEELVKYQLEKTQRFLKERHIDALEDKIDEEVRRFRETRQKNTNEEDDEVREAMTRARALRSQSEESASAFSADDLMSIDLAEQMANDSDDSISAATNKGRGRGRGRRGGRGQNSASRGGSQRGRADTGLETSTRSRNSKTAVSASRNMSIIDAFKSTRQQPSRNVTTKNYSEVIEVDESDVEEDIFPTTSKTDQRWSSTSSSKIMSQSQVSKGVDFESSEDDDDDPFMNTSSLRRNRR
B3: Mothers against decapentaplegic homolog 4 (Homo sapiens), Q13485 (parent)
chain: B1 chain
partner: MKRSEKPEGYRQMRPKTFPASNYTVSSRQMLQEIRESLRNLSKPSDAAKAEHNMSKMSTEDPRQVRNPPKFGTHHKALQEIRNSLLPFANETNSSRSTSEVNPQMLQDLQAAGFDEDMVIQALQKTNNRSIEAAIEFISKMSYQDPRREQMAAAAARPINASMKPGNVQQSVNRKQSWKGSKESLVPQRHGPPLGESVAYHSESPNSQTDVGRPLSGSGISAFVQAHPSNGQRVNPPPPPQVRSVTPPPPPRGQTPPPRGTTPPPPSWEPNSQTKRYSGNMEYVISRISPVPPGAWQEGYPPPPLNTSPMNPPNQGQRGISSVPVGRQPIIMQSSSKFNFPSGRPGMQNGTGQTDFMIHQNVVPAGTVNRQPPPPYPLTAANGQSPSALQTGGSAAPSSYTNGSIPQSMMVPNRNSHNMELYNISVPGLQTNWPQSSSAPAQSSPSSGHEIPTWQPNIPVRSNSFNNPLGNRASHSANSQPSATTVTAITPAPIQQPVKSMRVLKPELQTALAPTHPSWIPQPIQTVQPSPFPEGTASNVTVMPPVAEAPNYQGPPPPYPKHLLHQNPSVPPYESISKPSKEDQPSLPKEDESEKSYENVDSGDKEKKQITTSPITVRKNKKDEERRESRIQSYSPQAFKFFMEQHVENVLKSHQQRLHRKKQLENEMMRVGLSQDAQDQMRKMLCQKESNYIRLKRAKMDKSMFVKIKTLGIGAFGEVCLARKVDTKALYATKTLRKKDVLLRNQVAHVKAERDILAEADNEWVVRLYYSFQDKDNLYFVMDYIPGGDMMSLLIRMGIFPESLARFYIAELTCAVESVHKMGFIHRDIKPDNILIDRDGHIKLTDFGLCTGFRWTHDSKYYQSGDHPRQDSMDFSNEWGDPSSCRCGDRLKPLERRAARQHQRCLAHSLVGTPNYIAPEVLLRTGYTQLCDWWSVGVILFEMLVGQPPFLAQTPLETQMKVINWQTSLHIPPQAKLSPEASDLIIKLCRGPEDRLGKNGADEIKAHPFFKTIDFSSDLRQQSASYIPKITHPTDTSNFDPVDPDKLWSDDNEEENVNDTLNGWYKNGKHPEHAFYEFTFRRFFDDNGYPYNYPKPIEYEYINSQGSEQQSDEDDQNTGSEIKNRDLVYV
B4: Mothers against decapentaplegic homolog 4 (Homo sapiens), Q13485 (parent)
chain: B1 chain
partner: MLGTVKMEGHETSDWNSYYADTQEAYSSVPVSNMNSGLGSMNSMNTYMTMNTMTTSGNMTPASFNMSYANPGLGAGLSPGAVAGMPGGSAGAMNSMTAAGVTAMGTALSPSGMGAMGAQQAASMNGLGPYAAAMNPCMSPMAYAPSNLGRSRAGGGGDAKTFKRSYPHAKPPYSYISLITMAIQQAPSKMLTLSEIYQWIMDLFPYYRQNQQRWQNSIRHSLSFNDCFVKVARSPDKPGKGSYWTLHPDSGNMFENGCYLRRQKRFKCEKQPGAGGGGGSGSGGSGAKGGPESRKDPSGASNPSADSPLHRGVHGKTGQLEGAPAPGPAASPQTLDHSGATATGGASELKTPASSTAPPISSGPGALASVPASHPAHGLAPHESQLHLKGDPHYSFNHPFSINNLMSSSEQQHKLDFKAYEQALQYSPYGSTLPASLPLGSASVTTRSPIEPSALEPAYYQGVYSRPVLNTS
B5: Mothers against decapentaplegic homolog 4 (Homo sapiens), Q13485 (parent)
chain: B1 chain
partner: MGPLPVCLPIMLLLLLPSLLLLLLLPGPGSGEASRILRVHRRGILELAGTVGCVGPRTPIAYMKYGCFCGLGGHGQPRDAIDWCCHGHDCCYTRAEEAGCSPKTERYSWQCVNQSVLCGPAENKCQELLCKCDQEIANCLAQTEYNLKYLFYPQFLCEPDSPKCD
B6: Mothers against decapentaplegic homolog 4 (Homo sapiens), Q13485 (parent)
chain: B1 chain
partner: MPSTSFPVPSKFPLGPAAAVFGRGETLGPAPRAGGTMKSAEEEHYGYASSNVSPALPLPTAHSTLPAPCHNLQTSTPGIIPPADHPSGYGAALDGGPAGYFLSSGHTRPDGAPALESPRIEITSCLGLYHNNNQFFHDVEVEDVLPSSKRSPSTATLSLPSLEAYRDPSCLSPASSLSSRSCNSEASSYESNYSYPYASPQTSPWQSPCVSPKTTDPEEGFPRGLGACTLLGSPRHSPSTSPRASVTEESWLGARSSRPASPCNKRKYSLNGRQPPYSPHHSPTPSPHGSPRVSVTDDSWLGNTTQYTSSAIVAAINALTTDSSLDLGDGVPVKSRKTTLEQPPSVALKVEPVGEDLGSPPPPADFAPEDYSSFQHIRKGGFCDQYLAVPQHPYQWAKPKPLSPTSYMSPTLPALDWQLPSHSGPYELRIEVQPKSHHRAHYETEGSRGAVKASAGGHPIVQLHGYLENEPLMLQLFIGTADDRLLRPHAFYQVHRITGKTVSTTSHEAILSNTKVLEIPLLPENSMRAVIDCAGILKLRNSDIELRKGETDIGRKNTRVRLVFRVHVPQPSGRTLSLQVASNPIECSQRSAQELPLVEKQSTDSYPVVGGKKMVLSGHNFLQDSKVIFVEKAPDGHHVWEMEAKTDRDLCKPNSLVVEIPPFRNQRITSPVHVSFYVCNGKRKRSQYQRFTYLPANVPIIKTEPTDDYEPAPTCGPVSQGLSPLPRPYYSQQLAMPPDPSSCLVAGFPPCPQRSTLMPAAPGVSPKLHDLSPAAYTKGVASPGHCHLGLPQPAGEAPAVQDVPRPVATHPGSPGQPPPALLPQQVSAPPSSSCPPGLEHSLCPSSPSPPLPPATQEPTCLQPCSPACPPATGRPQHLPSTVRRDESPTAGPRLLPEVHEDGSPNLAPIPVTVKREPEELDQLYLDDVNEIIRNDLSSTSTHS
B7: Mothers against decapentaplegic homolog 4 (Homo sapiens), Q13485 (parent)
chain: B1 chain
partner: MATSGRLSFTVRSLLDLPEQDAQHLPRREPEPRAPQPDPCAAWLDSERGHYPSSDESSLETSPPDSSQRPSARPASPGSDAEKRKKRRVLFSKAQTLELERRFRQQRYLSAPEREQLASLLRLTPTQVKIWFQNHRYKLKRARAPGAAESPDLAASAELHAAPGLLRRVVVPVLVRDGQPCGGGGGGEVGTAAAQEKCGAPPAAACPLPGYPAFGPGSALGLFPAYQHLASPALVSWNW

Variants of: B1
Conditions: with mdm4_human MDM4, O15151

Q: Which “effect of a mutation on the interaction” value does the source give for R361H here?
A: with no effect

Variants of: B2
Conditions: with mre11_human MRE11, P49959

Q: G386D was tested. Which “effect of a mutation on the interaction” value did it give?
A: with no effect

Variants of: B2
Conditions: with mre11_human MRE11, P49959
Remark: another data set of the same source

Q: R361C was tested. Which “effect of a mutation on the interaction” value did it give?
A: with no effect

Variants of: B2
Conditions: with mre11_human MRE11, P49959
Remark: another data set of the same source

Q: For R361H, which “effect of a mutation on the interaction” value is on record?
A: with no effect

Variants of: B2
Conditions: with mre11_human MRE11, P49959
Remark: another data set of the same source

Q: How did the “effect of a mutation on the interaction” value turn out when D351H was run?
A: with no effect

Variants of: B3
Conditions: with lats1_human LATS1, O95835

Q: With R361C as the variant, how does the “effect of a mutation on the interaction” value read?
A: with no effect

Variants of: B3
Conditions: with lats1_human LATS1, O95835
Remark: another data set of the same source

Q: Which “effect of a mutation on the interaction” value does the source give for R361H here?
A: with no effect

Variants of: B3
Conditions: with lats1_human LATS1, O95835
Remark: another data set of the same source

Q: D351H was tested. Which “effect of a mutation on the interaction” value did it give?
A: with no effect

Variants of: B3
Conditions: with lats1_human LATS1, O95835
Remark: another data set of the same source

Q: For G386D, which “effect of a mutation on the interaction” value is on record?
A: with no effect

Variants of: B3
Conditions: with lats1_human LATS1, O95835
Remark: another data set of the same source

Q: Which “effect of a mutation on the interaction” value does the source give for G386D here?
A: increasing interaction strength

Variants of: B4
Conditions: with foxa1_human FOXA1, P55317

Q: With R361H as the variant, how does the “effect of a mutation on the interaction” value read?
A: with no effect

Variants of: B4
Conditions: with foxa1_human FOXA1, P55317
Remark: another data set of the same source

Q: R361C was tested. Which “effect of a mutation on the interaction” value did it give?
A: with no effect

Variants of: B4
Conditions: with foxa1_human FOXA1, P55317
Remark: another data set of the same source

Q: How did the “effect of a mutation on the interaction” value turn out when G386D was run?
A: with no effect

Variants of: B4
Conditions: with foxa1_human FOXA1, P55317
Remark: another data set of the same source

Q: D351H was tested. Which “effect of a mutation on the interaction” value did it give?
A: with no effect

Variants of: B5
Conditions: with pa2gx_human PLA2G10, O15496

Q: How did the “effect of a mutation on the interaction” value turn out when D351H was run?
A: with no effect

Variants of: B5
Conditions: with pa2gx_human PLA2G10, O15496
Remark: another data set of the same source

Q: G386D was tested. Which “effect of a mutation on the interaction” value did it give?
A: with no effect

Variants of: B5
Conditions: with pa2gx_human PLA2G10, O15496
Remark: another data set of the same source

Q: R361C was tested. Which “effect of a mutation on the interaction” value did it give?
A: with no effect

Variants of: B6
Conditions: with nfac1_human NFATC1, O95644

Q: How did the “effect of a mutation on the interaction” value turn out when R361C was run?
A: with no effect

Variants of: B6
Conditions: with nfac1_human NFATC1, O95644
Remark: another data set of the same source

Q: How did the “effect of a mutation on the interaction” value turn out when R361H was run?
A: with no effect

Variants of: B6
Conditions: with nfac1_human NFATC1, O95644
Remark: another data set of the same source

Q: How did the “effect of a mutation on the interaction” value turn out when G386D was run?
A: with no effect

Variants of: B6
Conditions: with nfac1_human NFATC1, O95644
Remark: another data set of the same source

Q: D351H was tested. Which “effect of a mutation on the interaction” value did it give?
A: with no effect

Variants of: B7
Conditions: with nkx28_human NKX2-8, O15522

Q: How did the “effect of a mutation on the interaction” value turn out when D351H was run?
A: with no effect

Variants of: B7
Conditions: with nkx28_human NKX2-8, O15522
Remark: another data set of the same source

Q: Which “effect of a mutation on the interaction” value does the source give for G386D here?
A: with no effect

— IntAct's records for PubMed 35512704
